Where no end group is shown, it is not given here. QXL520 = dark acceptor
How the values were obtained:
Experiment in all cases: FRET or BRET
[1] = biological target: RyR2 in cardiac SR membranes decorated with D-32-FKBP (porcine (endogenous in porcine heart) | human)
[2] = biological target: RyR2 in cardiac SR membranes decorated with D-85-FKBP (porcine (endogenous in porcine heart) | human)
[3] = biological target: RyR2 in cardiac SR membranes decorated with D-49-FKBP (porcine (endogenous in porcine heart) | human)

B1: acceptor-labeled DPc10 (QXL520 at the N-terminus) (peptide)
peptide: QXL520-GFCPDHKAAMVLFLDRVYGIEVQDFLLHLLEVGFLP
[1]
  Kd: 13.1 µM
[2]
  Kd: 10.4 µM
[3]
  Kd: 9.9 µM
